From US20240092934A1 (FAMEWAVE, published 2024)

target: T1, recombinant human CEACAM-1 (R&D Systems cat. no. 2244-CM-050) (human, UniProt P13688 35-428); experiment: competition ELISA on coated recombinant human CEACAM-1; competitor biotinylated chimeric CM-10 IgG1
T1 construct: Coated on the ELISA plate at 0.5 ug/ml
T1 sequence (looked up): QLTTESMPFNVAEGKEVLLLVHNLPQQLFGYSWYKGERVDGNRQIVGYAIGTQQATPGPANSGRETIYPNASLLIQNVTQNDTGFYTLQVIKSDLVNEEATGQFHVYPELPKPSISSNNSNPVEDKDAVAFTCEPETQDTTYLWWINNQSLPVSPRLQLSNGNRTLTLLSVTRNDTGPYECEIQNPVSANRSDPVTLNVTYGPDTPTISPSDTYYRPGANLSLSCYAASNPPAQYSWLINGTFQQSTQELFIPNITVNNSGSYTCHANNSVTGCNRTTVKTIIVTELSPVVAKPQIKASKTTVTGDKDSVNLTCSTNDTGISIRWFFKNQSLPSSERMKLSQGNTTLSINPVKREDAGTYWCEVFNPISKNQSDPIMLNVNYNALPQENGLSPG
Source text: The binding of the biotinylated antibody was detected with streptavidin-HRP (Sigma cat. no. S5512) and TMB substrate (Invitrogen cat. no. 00-2023). The reaction was stopped with 3M HC1, absorbance read at 450 nm on a Dynex Technologies MRX TC II plate reader and the binding curves plotted.

Binder	IC50 [µg/mL]	IC50 normalized to CM-10
humanized anti-CEACAM-1 variant VH3/VK2, IgG1 (antibody, V domains shown, Tested as human IgG1 / kappa antibody; only the variable regions are tied to this variant) VH: QVQLVQSGAEVKKPGASVKVSCKASGYAFTNNLIEWVRQAPGQGLEWIGVINPGSGDTNYNEKFKGRATLTADKSINTAYMELSRLRSDDTAVYYCARGDYYGGFAVDYWGQGTTVTVSS VL: DIQMTQSPSSLSASVGDRVTITCRTSQDIGNYLNWYQQKPGKAVKLLIYYTSRLHSGVPSRFSGSGSGTDYTLTISSLQPEDIATYFCQQGKSLPRTFGGGTKVEIK	0.85	1.36 ratio to IC50 of chimeric CM-10
humanized anti-CEACAM-1 variant VH1/VK1, IgG1 (antibody, V domains shown, Tested as human IgG1 / kappa antibody; only the variable regions are tied to this variant) VH: QVQLVQSGAELKKPGASVKVSCKASGYAFTNNLIEWVKQAPGQGLEWIGVINPGSGDTNYNEKFKGRATLTADKSINTAYMELSSLTSDDSAVYFCARGDYYGGFAVDYWGQGTSVTVSS VL: DIQMTQSPSSLSASVGDRVTITCRTSQDIGNYLNWYQQKPGKAVKLLIYYTSRLHSGVPSRFSGSGSGTDYTLTISSLQQEDIATYFCQQGKSLPRTFGGGTKVEIK	0.78	1.46 ratio to IC50 of chimeric CM-10
humanized anti-CEACAM-1 variant VH1/VK1, IgG4 (S241P) (antibody, V domains shown, Tested as human IgG4 (S241P) / kappa antibody; only the variable regions are tied to this variant) VH: QVQLVQSGAELKKPGASVKVSCKASGYAFTNNLIEWVKQAPGQGLEWIGVINPGSGDTNYNEKFKGRATLTADKSINTAYMELSSLTSDDSAVYFCARGDYYGGFAVDYWGQGTSVTVSS VL: DIQMTQSPSSLSASVGDRVTITCRTSQDIGNYLNWYQQKPGKAVKLLIYYTSRLHSGVPSRFSGSGSGTDYTLTISSLQQEDIATYFCQQGKSLPRTFGGGTKVEIK	0.78	1.52 ratio to IC50 of chimeric CM-10
humanized anti-CEACAM-1 variant VH1/VK2, IgG1 (antibody, V domains shown, Tested as human IgG1 / kappa antibody; only the variable regions are tied to this variant) VH: QVQLVQSGAELKKPGASVKVSCKASGYAFTNNLIEWVKQAPGQGLEWIGVINPGSGDTNYNEKFKGRATLTADKSINTAYMELSSLTSDDSAVYFCARGDYYGGFAVDYWGQGTSVTVSS VL: DIQMTQSPSSLSASVGDRVTITCRTSQDIGNYLNWYQQKPGKAVKLLIYYTSRLHSGVPSRFSGSGSGTDYTLTISSLQPEDIATYFCQQGKSLPRTFGGGTKVEIK	0.7	1.32 ratio to IC50 of chimeric CM-10
humanized anti-CEACAM-1 variant VH1/VK2, IgG4 (S241P) (antibody, V domains shown, Tested as human IgG4 (S241P) / kappa antibody; only the variable regions are tied to this variant) VH: QVQLVQSGAELKKPGASVKVSCKASGYAFTNNLIEWVKQAPGQGLEWIGVINPGSGDTNYNEKFKGRATLTADKSINTAYMELSSLTSDDSAVYFCARGDYYGGFAVDYWGQGTSVTVSS VL: DIQMTQSPSSLSASVGDRVTITCRTSQDIGNYLNWYQQKPGKAVKLLIYYTSRLHSGVPSRFSGSGSGTDYTLTISSLQPEDIATYFCQQGKSLPRTFGGGTKVEIK	0.7	1.36 ratio to IC50 of chimeric CM-10
humanized anti-CEACAM-1 variant VH1/VK3, IgG1 (antibody, V domains shown, Tested as human IgG1 / kappa antibody; only the variable regions are tied to this variant) VH: QVQLVQSGAELKKPGASVKVSCKASGYAFTNNLIEWVKQAPGQGLEWIGVINPGSGDTNYNEKFKGRATLTADKSINTAYMELSSLTSDDSAVYFCARGDYYGGFAVDYWGQGTSVTVSS VL: DIQMTQSPSSLSASVGDRVTITCRTSQDIGNYLNWYQQKPGKAVKLLIYYTSRLHSGVPSRFSGSGSGTDYTFTISSLQPEDIATYFCQQGKSLPRTFGGGTKVEIK	0.77	1.44 ratio to IC50 of chimeric CM-10
humanized anti-CEACAM-1 variant VH1/VK3, IgG4 (S241P) (antibody, V domains shown, Tested as human IgG4 (S241P) / kappa antibody; only the variable regions are tied to this variant) VH: QVQLVQSGAELKKPGASVKVSCKASGYAFTNNLIEWVKQAPGQGLEWIGVINPGSGDTNYNEKFKGRATLTADKSINTAYMELSSLTSDDSAVYFCARGDYYGGFAVDYWGQGTSVTVSS VL: DIQMTQSPSSLSASVGDRVTITCRTSQDIGNYLNWYQQKPGKAVKLLIYYTSRLHSGVPSRFSGSGSGTDYTFTISSLQPEDIATYFCQQGKSLPRTFGGGTKVEIK	0.54	1.05 ratio to IC50 of chimeric CM-10
humanized anti-CEACAM-1 variant VH2/VK1, IgG1 (antibody, V domains shown, Tested as human IgG1 / kappa antibody; only the variable regions are tied to this variant) VH: QVQLVQSGAEVKKPGASVKVSCKASGYAFTNNLIEWVKQAPGQGLEWIGVINPGSGDTNYNEKFKGRATLTADKSINTAYMELSRLRSDDTAVYFCARGDYYGGFAVDYWGQGTTVTVSS VL: DIQMTQSPSSLSASVGDRVTITCRTSQDIGNYLNWYQQKPGKAVKLLIYYTSRLHSGVPSRFSGSGSGTDYTLTISSLQQEDIATYFCQQGKSLPRTFGGGTKVEIK	0.68	1.29 ratio to IC50 of chimeric CM-10
humanized anti-CEACAM-1 variant VH2/VK1, IgG4 (S241P) (antibody, V domains shown, Tested as human IgG4 (S241P) / kappa antibody; only the variable regions are tied to this variant) VH: QVQLVQSGAEVKKPGASVKVSCKASGYAFTNNLIEWVKQAPGQGLEWIGVINPGSGDTNYNEKFKGRATLTADKSINTAYMELSRLRSDDTAVYFCARGDYYGGFAVDYWGQGTTVTVSS VL: DIQMTQSPSSLSASVGDRVTITCRTSQDIGNYLNWYQQKPGKAVKLLIYYTSRLHSGVPSRFSGSGSGTDYTLTISSLQQEDIATYFCQQGKSLPRTFGGGTKVEIK	0.43	0.84 ratio to IC50 of chimeric CM-10
humanized anti-CEACAM-1 variant VH2/VK2, IgG1 (antibody, V domains shown, Tested as human IgG1 / kappa antibody; only the variable regions are tied to this variant) VH: QVQLVQSGAEVKKPGASVKVSCKASGYAFTNNLIEWVKQAPGQGLEWIGVINPGSGDTNYNEKFKGRATLTADKSINTAYMELSRLRSDDTAVYFCARGDYYGGFAVDYWGQGTTVTVSS VL: DIQMTQSPSSLSASVGDRVTITCRTSQDIGNYLNWYQQKPGKAVKLLIYYTSRLHSGVPSRFSGSGSGTDYTLTISSLQPEDIATYFCQQGKSLPRTFGGGTKVEIK	0.78	1.24 ratio to IC50 of chimeric CM-10
humanized anti-CEACAM-1 variant VH2/VK2, IgG4 (S241P) (antibody, V domains shown, Tested as human IgG4 (S241P) / kappa antibody; only the variable regions are tied to this variant) VH: QVQLVQSGAEVKKPGASVKVSCKASGYAFTNNLIEWVKQAPGQGLEWIGVINPGSGDTNYNEKFKGRATLTADKSINTAYMELSRLRSDDTAVYFCARGDYYGGFAVDYWGQGTTVTVSS VL: DIQMTQSPSSLSASVGDRVTITCRTSQDIGNYLNWYQQKPGKAVKLLIYYTSRLHSGVPSRFSGSGSGTDYTLTISSLQPEDIATYFCQQGKSLPRTFGGGTKVEIK	0.76	1.26 ratio to IC50 of chimeric CM-10
humanized anti-CEACAM-1 variant VH2/VK3, IgG1 (antibody, V domains shown, Tested as human IgG1 / kappa antibody; only the variable regions are tied to this variant) VH: QVQLVQSGAEVKKPGASVKVSCKASGYAFTNNLIEWVKQAPGQGLEWIGVINPGSGDTNYNEKFKGRATLTADKSINTAYMELSRLRSDDTAVYFCARGDYYGGFAVDYWGQGTTVTVSS VL: DIQMTQSPSSLSASVGDRVTITCRTSQDIGNYLNWYQQKPGKAVKLLIYYTSRLHSGVPSRFSGSGSGTDYTFTISSLQPEDIATYFCQQGKSLPRTFGGGTKVEIK	0.76	1.21 ratio to IC50 of chimeric CM-10
humanized anti-CEACAM-1 variant VH2/VK3, IgG4 (S241P) (antibody, V domains shown, Tested as human IgG4 (S241P) / kappa antibody; only the variable regions are tied to this variant) VH: QVQLVQSGAEVKKPGASVKVSCKASGYAFTNNLIEWVKQAPGQGLEWIGVINPGSGDTNYNEKFKGRATLTADKSINTAYMELSRLRSDDTAVYFCARGDYYGGFAVDYWGQGTTVTVSS VL: DIQMTQSPSSLSASVGDRVTITCRTSQDIGNYLNWYQQKPGKAVKLLIYYTSRLHSGVPSRFSGSGSGTDYTFTISSLQPEDIATYFCQQGKSLPRTFGGGTKVEIK	0.71	1.16 ratio to IC50 of chimeric CM-10
humanized anti-CEACAM-1 variant VH3/VK1, IgG1 (antibody, V domains shown, Tested as human IgG1 / kappa antibody; only the variable regions are tied to this variant) VH: QVQLVQSGAEVKKPGASVKVSCKASGYAFTNNLIEWVRQAPGQGLEWIGVINPGSGDTNYNEKFKGRATLTADKSINTAYMELSRLRSDDTAVYYCARGDYYGGFAVDYWGQGTTVTVSS VL: DIQMTQSPSSLSASVGDRVTITCRTSQDIGNYLNWYQQKPGKAVKLLIYYTSRLHSGVPSRFSGSGSGTDYTLTISSLQQEDIATYFCQQGKSLPRTFGGGTKVEIK	0.69	1.1 ratio to IC50 of chimeric CM-10
humanized anti-CEACAM-1 variant VH3/VK1, IgG4 (S241P) (antibody, V domains shown, Tested as human IgG4 (S241P) / kappa antibody; only the variable regions are tied to this variant) VH: QVQLVQSGAEVKKPGASVKVSCKASGYAFTNNLIEWVRQAPGQGLEWIGVINPGSGDTNYNEKFKGRATLTADKSINTAYMELSRLRSDDTAVYYCARGDYYGGFAVDYWGQGTTVTVSS VL: DIQMTQSPSSLSASVGDRVTITCRTSQDIGNYLNWYQQKPGKAVKLLIYYTSRLHSGVPSRFSGSGSGTDYTLTISSLQQEDIATYFCQQGKSLPRTFGGGTKVEIK	0.71	1.16 ratio to IC50 of chimeric CM-10
humanized anti-CEACAM-1 variant VH3/VK3, IgG1 (antibody, V domains shown, Tested as human IgG1 / kappa antibody; only the variable regions are tied to this variant) VH: QVQLVQSGAEVKKPGASVKVSCKASGYAFTNNLIEWVRQAPGQGLEWIGVINPGSGDTNYNEKFKGRATLTADKSINTAYMELSRLRSDDTAVYYCARGDYYGGFAVDYWGQGTTVTVSS VL: DIQMTQSPSSLSASVGDRVTITCRTSQDIGNYLNWYQQKPGKAVKLLIYYTSRLHSGVPSRFSGSGSGTDYTFTISSLQPEDIATYFCQQGKSLPRTFGGGTKVEIK	0.86	1.37 ratio to IC50 of chimeric CM-10
humanized anti-CEACAM-1 variant VH3/VK3, IgG4 (S241P) (antibody, V domains shown, Tested as human IgG4 (S241P) / kappa antibody; only the variable regions are tied to this variant) VH: QVQLVQSGAEVKKPGASVKVSCKASGYAFTNNLIEWVRQAPGQGLEWIGVINPGSGDTNYNEKFKGRATLTADKSINTAYMELSRLRSDDTAVYYCARGDYYGGFAVDYWGQGTTVTVSS VL: DIQMTQSPSSLSASVGDRVTITCRTSQDIGNYLNWYQQKPGKAVKLLIYYTSRLHSGVPSRFSGSGSGTDYTFTISSLQPEDIATYFCQQGKSLPRTFGGGTKVEIK	0.73	1.23 ratio to IC50 of chimeric CM-10
humanized anti-CEACAM-1 variant VH4/VK1, IgG1 (antibody, V domains shown, Tested as human IgG1 / kappa antibody; only the variable regions are tied to this variant) VH: QVQLVQSGAEVKKPGASVKVSCKASGYAFTNNLIEWVRQAPGQGLEWIGVINPGSGDTNYNEKFKGRATLTADKSISTAYMELSRLRSDDTAVYYCARGDYYGGFAVDYWGQGTTVTVSS VL: DIQMTQSPSSLSASVGDRVTITCRTSQDIGNYLNWYQQKPGKAVKLLIYYTSRLHSGVPSRFSGSGSGTDYTLTISSLQQEDIATYFCQQGKSLPRTFGGGTKVEIK	0.73	1.15 ratio to IC50 of chimeric CM-10
humanized anti-CEACAM-1 variant VH4/VK1, IgG4 (S241P) (antibody, V domains shown, Tested as human IgG4 (S241P) / kappa antibody; only the variable regions are tied to this variant) VH: QVQLVQSGAEVKKPGASVKVSCKASGYAFTNNLIEWVRQAPGQGLEWIGVINPGSGDTNYNEKFKGRATLTADKSISTAYMELSRLRSDDTAVYYCARGDYYGGFAVDYWGQGTTVTVSS VL: DIQMTQSPSSLSASVGDRVTITCRTSQDIGNYLNWYQQKPGKAVKLLIYYTSRLHSGVPSRFSGSGSGTDYTLTISSLQQEDIATYFCQQGKSLPRTFGGGTKVEIK	0.69	1.15 ratio to IC50 of chimeric CM-10
